Test results as given in paper PMC11305080.

Key:
[1] = biological target: HIT01-K21Q-R218E (cleavage-resistant variant of HIT01) (Pangasianodon hypophthalmus (iridescent shark) scaffold with human PCSK9 stretches); assay: BLI
[2] = biological target: human proprotein convertase subtilisin/kexin type 9 (PCSK9) (human) (UniProt Q8NBP7); assay: BLI

Alirocumab
Kd [1]: 2.78 nM | Kd [2]: 1.71 nM
